Molecular target: T1, S. cerevisiae Ggc1(C222S) with C-terminal His6-tag (S. cerevisiae, UniProt P38988 1-300, C222S)
T1 sequence (looked up): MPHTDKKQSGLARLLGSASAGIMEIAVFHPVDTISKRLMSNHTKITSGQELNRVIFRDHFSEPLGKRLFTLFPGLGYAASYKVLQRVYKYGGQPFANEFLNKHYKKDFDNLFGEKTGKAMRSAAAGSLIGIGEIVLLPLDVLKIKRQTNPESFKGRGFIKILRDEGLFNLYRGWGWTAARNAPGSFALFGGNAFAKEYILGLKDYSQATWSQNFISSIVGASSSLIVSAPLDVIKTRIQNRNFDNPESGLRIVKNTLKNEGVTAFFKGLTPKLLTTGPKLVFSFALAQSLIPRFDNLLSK
Test: pull-down

B1: TIM8·13(Tim8_(K30F,S36L)) mutant chaperone complex (complex, S. cerevisiae)
chain 1: MSSLSTSDLASLDDTSKKEIATFLEGENSFQKVQMLIHQFTNICFKKCVESVNDSNLSSQEEQCLSNCVNRFLDTNIRIVNGLQNTR
chain 2: GGLSSIFGGGAPSQQKEAATTAKTTPNPIAKELKNQIAQELAVANATELVNKISENCFEKCLTSPYATRNDACIDQCLAKYMRSWNVISKAYISRIQNASASGEI
B1: binds.

From paper PMC11206218 (Science Advances, 2020)
